Here are results for two molecules from US10280218B2, “Antibodies binding to BMP4, and uses thereof” (ACADEMISCH MEDISCH CENTRUM, priority 2014, dated 2019).

The target of one experiment is T1, BMP2 (Homo sapiens, UniProt P12643).
T1 sequence (P12643 283-396): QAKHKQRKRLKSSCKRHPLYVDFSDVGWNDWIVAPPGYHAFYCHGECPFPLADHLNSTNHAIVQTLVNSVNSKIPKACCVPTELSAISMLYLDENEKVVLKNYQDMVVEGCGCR
The experiment can be described thus: Surface plasmon resonance (SPR), BMPs injected over VHH-coated chip. The following applies: molecule coupled to chip, —: No binding detected. More on the design: ka (BMP2): unit not given here. How it is done: In a first set of experiments, controls and VHHs (either as monomers or dimers) were coupled to SPR chips and the measurement of BMP affinities was obtained by injecting the different BMPs to the plate.
(§1) Serial dilutions (2.0-10 μg/ml) of purified VHHs were spotted on an amine-specific SensEye gold-film gel-type SPRchip (Ssens), using a Continuous Flow Microspotter (Wasatch Microfluidics, Salt Lake City, Utah, United States) as described (Lokate et al., 2007). BMP binding was analyzed on an IBIS MX96 (IBIS Technologies, Enschede, The Netherlands) instrument by performing injections with dilution series (0.05-2.0 μg/ml) of recombinant BMPs on the VHH-coated chip. In each injection, BMPs were injected and incubated for 8 min, followed by 15 min thorough washing with binding buffer (PBS+0.05% Tween20+0.05% sodium azide) to measure dissociation. Epitope binning was done by injecting VHH dilutions (2.0 μg/ml) over the chip, immediately after the dissociation step. Injections with blank binding buffer were used as reference. After each concatenated injection, the chip was regenerated with 10 mM glycine-HCl, pH 2.0. Experimental data were processed with SPRintX software (IBIS Technologies) and kinetic parameters were determined using Scrubber2 software (BioLogic Software, Campbell, ACT, Australia). Binding constants were obtained by global fitting to a one-site binding model.

The target of experiment [1] is T2, BMP6 (Homo sapiens, UniProt P22004).
T2 sequence (P22004 375-513): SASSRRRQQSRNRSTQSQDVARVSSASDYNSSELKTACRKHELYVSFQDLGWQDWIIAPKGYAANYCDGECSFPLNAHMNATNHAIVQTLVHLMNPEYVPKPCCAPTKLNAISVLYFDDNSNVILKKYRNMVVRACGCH
The description is as above. The settings on record: molecule coupled to chip; unit inferred; — not defined there (Table 1: No binding detected). How it is done:
To confirm their BMP specificities and to elucidate their binding affinities, our VHHs were subjected to surface plasmon resonance (SPR) analysis. In a first set of experiments, controls and VHHs (either as monomers or dimers) were coupled to SPR chips and the measurement of BMP affinities was obtained by injecting the different BMPs to the plate.
as §1

Experiment [2] concerns the target T2, BMP6. The experiment can be described thus: BMP activity luciferase reporter assay (BRE-luciferase, ID1 promoter) in C2C12 cells. Format: cell-based, mouse. As for the experimental part: One of the most studied BMP target genes is the Inhibitor of Differentiation 1 (ID1). This is an immediate early gene that is activated by binding of the phosphorylated SMADs to its promoter region (López-Rovira et al., 2002). Thus, we employed the BMP-responsive C2C12 cells, which are stably transfected with the BRE-luciferase vector containing the BMP-Responsive-Element (the mouse ID1 promoter) cloned into the pGL3 luciferase vector (Zilberberg 2007). […] C2C12 cells were treated with the different BMPs with or without our VHHs or human Noggin at a concentration of 5 μg/ml. Luciferase activity was measured after 16 hours incubation. Most of the transcriptional data is in concordance with the results obtained with the phosphorylation of SMAD1/5/8.
C2C12 cells were plated in 96-well plates at 5×10^3 cells/well and cells were allowed to attach overnight. 100 μl of DMEM with 0.1% BSA were added in each well. VHH antibodies and human Fc-Noggin at the indicated concentrations were added at the same time. Wells with unstimulated cells were added as controls. Cells were treated in triplicate with the BMPs at the indicated concentrations for 16 hours. Luciferase activity was measured by adding 100 μl of luciferase substrate solution from the Bright-Glo™ Luciferase Assay System (Promega Benelux, Leiden, The Netherlands). After 3 minutes of incubation, luciferase activity was measured with Synergy HT Multi-Mode Microplate Reader (Biotek, Winooski, Vt., United States). Luciferase values were normalized to background activity (activity of wells with no cells) and represented as ratio to the activity of BMP-stimulated cells.
C2C12 cells were cultured in 96-well plates at 5×10^3 cells/well. […]

B1: C8E7: E7 linked to C8, hetero-dimer VHH bihead (protein)
chain: EVQLVESGGGLVQAGGSLRLSCAASGRTFRINDMGWYRQAPGKSRDMVARITSGGNTNYADSVKGRFTISRDNAKNTVYLQMNSLKPEDTAVYYCNADGLRFDSTRYRPFDSWGQGTQVTVSSGGGGSGGGGSEVQLVESGGGLVQAGGSLRLSCAASGSIRGFVAMAWYRQAPGKQREWVATVTNGGTLYGDSVKGRFTGSRDNAKNTVYLQMNSLKPEDTAVYYCALRQIGASGYDYWGQGTQVTVSS
For orientation: Kd means the concentration at which binding is half-saturated. With B1, in the experiment with BMP2, the “ka (BMP2)” value turned out to be 19.4 and the “kd (BMP2)” value was 10.7 10^−5 sec^−1. Also, in the experiment with BMP6 [1], the affinity, expressed as Kd, was 50 nM. In addition, in the experiment with BMP6 [2] (BMP6 50 ng/ml, 16 hours, increasing concentrations), the “inhibition of BMP6-mediated transcriptional activation by dimers” value is given as “unable to impair”.

B2: hNoggin (protein)
chain: QHYLHIRPAPSDNLPLVDLIEHPDPIFDPKEKDLNETLLRSLLGGHYDPGFMATSPPEDRPGGGGGAAGGAEDLAELDQLLRQRPSGAMPSEIKGLEFSEGLAQGKKQRLSKKLRRKLQMWLWSQTFCPVLYAWNDLGSRFWPRYVKVGSCFSKRSCSVPEGMVCKPSKSVHLTVLRWRCQRRGGQRCGWIPIQYPIISECKCSC
Regarding B2, the “kd (BMP2)” value with BMP2 is reported as 16.2 10^−5 sec^−1. The molecule further displayed a dissociation constant (Kd) with BMP6 [1] of 50 nM. Moreover, in the experiment with BMP6 [2] (50 ng/ml hBMP6, 16 h, 500 ng/ml), the “inhibition of BMP-6 signals, comparison of inhibitors” value is “inhibited”.
